Laboratory results: PMC7049166 (Proceedings of the National Academy of Sciences of the …, 2020)
Numbering of substitutions follows the chain as printed. Names and notes keep the numbering of the source. Values joined by “and” are separate entries in the source; they are usually repeats but may differ in a detail not shown here. Identical values can stand only once.

Columns and labels:
crystal structure = target: the molecule itself; test: crystal structure
SEC-MALS = target: the molecule itself; test: SEC-MALS
[1] = target: the molecule itself; test: cell-based or functional assay
cross-linking = target: the molecule itself; test: cross-linking
AUC = target: the molecule itself; test: AUC

B1: S. cerevisiae short Mgm1 (s-Mgm1), truncated version, residues 184-881 (domain or fragment, UniProt P32266 184-881, looked up)
chain: MLNLTKQMIEIRTILNKVDSSSAHLTLPSIVVIGSQSSGKSSVLESIVGREFLPKGSNMVTRRPIELTLVNTPNSNNVTADFPSMRLYNIKDFKEVKRMLMELNMAVPTSEAVSEEPIQLTIKSSRVPDLSLVDLPGYIQVEAADQPIELKTKIRDLCEKYLTAPNIILAISAADVDLANSSALKASKAADPKGLRTIGVITKLDLVDPEKARSILNNKKYPLSMGYVGVITKTPSSINRKHLGLFGEAPSSSLSGIFSKGQHGQSSGEENTNGLKQIVSHQFEKAYFKENKKYFTNCQVSTKKLREKLIKILEISMSNALEPTSTLIQQELDDTSYLFKVEFNDRHLTPKSYLLNNIDVLKLGIKEFQEKFHRNELKSILRAELDQKVLDVLATRYWKDDNLQDLSSSKLESDTDMLYWHKKLELASSGLTKMGIGRLSTMLTTNAILKELDNILESTQLKNHELIKDLVSNTAINVLNSKYYSTADQVENCIKPFKYEIDLEERDWSLARQHSINLIKEELRQCNSRYQAIKNAVGSKKLANVMGYLENESNLQKETLGMSKLLLERGSEAIFLDKRCKVLSFRLKMLKNKCHSTIEKDRCPEVFLSAVSDKLTSTAVLFLNVELLSDFFYNFPIELDRRLTLLGDEQVEMFAKEDPKISRHIELQKRKELLELALEKIDSILVFKKSYKGVSKNL
**Q.** How did the “stoichiometry N” value (crystal structure) turn out when B1 was run?
**A.** 3

**Q.** And the “stoichiometry N” value (SEC-MALS)?
**A.** 2

**Q.** And the “stimulation of s-Mgm1 GTPase activity by liposomes with 10% or 20% cardiolipin” value [1]?
**A.** 8 fold

B2: HA-tagged s-Mgm1 S397C/E751C mutant (with 4CS mutations C341S, C676S, C709S, C763S) (domain or fragment, S. cerevisiae, UniProt P32266 184-881, looked up)
chain: B1 chain with C158S, S214C, C493S, C526S, E568C, C580S
**Q.** With B2 as the protein, how does the “stoichiometry N” value (cross-linking) read?
**A.** 2 and 3

B3: s-Mgm1 R712A/E751A mutant (domain or fragment, S. cerevisiae, UniProt P32266 184-881, looked up)
chain: B1 chain with R529A, E568A
**Q.** Does B3 bind (AUC)?
**A.** binds
